Test results taken from patent US20230167501.

Target: T1, PEG10 gag
T1 chain: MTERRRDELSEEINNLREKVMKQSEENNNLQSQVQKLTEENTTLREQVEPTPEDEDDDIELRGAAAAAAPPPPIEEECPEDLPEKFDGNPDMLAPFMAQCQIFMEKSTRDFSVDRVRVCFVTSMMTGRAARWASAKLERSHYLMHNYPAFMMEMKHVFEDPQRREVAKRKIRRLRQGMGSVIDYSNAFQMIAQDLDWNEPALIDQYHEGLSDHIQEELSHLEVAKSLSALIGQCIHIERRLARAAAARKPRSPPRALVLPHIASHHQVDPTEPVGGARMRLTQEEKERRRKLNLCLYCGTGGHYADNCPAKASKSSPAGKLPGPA

B1: PEG10 gag-pol (protein)
chain: MTERRRDELSEEINNLREKVMKQSEENNNLQSQVQKLTEENTTLREQVEPTPEDEDDDIELRGAAAAAAPPPPIEEECPEDLPEKFDGNPDMLAPFMAQCQIFMEKSTRDFSVDRVRVCFVTSMMTGRAARWASAKLERSHYLMHNYPAFMMEMKHVFEDPQRREVAKRKIRRLRQGMGSVIDYSNAFQMIAQDLDWNEPALIDQYHEGLSDHIQEELSHLEVAKSLSALIGQCIHIERRLARAAAARKPRSPPRALVLPHIASHHQVDPTEPVGGARMRLTQEEKERRRKLNLCLYCGTGGHYADNCPAKASKSSPAGKLPGPAVEGPSATGPEIIRSPQDDASSPHLQVMLQIHLPGRHTLFVRAMIDSGASGNFIDHEYVAQNGIPLRIKDWPILVEAIDGRPIASGPVVHETHDLIVDLGDHREVLSFDVTQSPFFPVVLGVRWLSTHDPNITWSTRSIVFDSEYCRYHCRMYSPIPPSLPPPAPQPPLYYPVDGYRVYQPVRYYYVQNVYTPVDEHVYPDHRLVDPHIEMIPGAHSIPSGHVYSLSEPEMAALRDFVARNVKDGLITPTIAPNGAQVLQVKRGWKLQVSYDCRAPNNFTIQNQYPRLSIPNLEDQAHLATYTEFVPQIPGYQTYPTYAAYPTYPVGFAWYPVGRDGQGRSLYVPVMITWNPHWYRQPPVPQYPPPQPPPPPPPPPPPPSYSTL
  presence of HA-tagged cleavage products by western blot after co-transfection: PEG10 gag-pol was capable of cleaving PEG10 gag in trans
